Results on one molecule are retold here after patent US20160356794A1 (Merck Sharp & Dohme, published 2016).

No end group written: not given here.

Assay [1] has as its target T1, PTPPTREPKKVAVVR (human).
T1 construct: Synthetic peptide covalently immobilized on glass through a hydrophilic linker (RepliTope microarray)
T1 peptide: PTPPTREPKKVAVVR
In words: RepliTope peptide microarray, immobilized 15-mer, fluorescent secondary antibody. From the text:
(§1) Epitope mapping of clones 10H8 and 19G10 was completed using JPT Peptide Technologies' RepliTope™ peptide microarrays. This technology consists in using purified synthetic peptides chemoselectively and covalently immobilized to the glass surface. An optimized hydrophilic linker moiety is inserted between the glass surface and the antigen derived peptide sequence to avoid false negatives caused by sterical hindrance. The peptides used spanned Tau mid region protein sequence of 166 amino acids between amino acid 104 and amino acid 269 (Tau 166). Peptides of 15 amino acids in length that extended downstream either 1 or 2 amino acids at a time were used in this experiment.
(§2) The assay was performed using an automated TECAN HS4X00 microarray processing station. Microarrays were washed, incubated with blocking buffer for 60 min at 30° C., and subsequently with clones […] and 19G10 diluted in blocking buffer for 120 min at 30° C. Microarrays were washed and incubated with secondary antibody diluted in blocking buffer for 45 min at 30° C. and then dried. The quantification was performed using high resolution fluorescence scanner. The resulting images were analyzed and quantified using spot-recognition software GenePix (Molecular Devices). For each spot, the mean signal intensity was extracted and expressed as arbitraty florescence units.

In a further assay the target is T2, TPPTREPKKVAVVRT (human, also: covalently immobilized on glass through a hydrophilic linker).
T2 construct: Synthetic peptide covalently immobilized on glass through a hydrophilic linker (RepliTope microarray)
T2 peptide: TPPTREPKKVAVVRT
Described as above.
Description: as §1, §2

The target of a further assay is T3, SRSRTPSLPTPPTRE (human, also: covalently immobilized on glass through a hydrophilic linker).
T3 construct: Synthetic peptide covalently immobilized on glass through a hydrophilic linker (RepliTope microarray)
T3 peptide: SRSRTPSLPTPPTRE
The assay is described as above.
Description: as §1, §2

In the next assay the target is T4, REPKKVAVVRTPPKS (human).
T4 construct: Synthetic peptide covalently immobilized on glass through a hydrophilic linker (RepliTope microarray)
T4 peptide: REPKKVAVVRTPPKS
The assay is described as above.
Description: as §1, §2

Assay [2] has as its target T5, PPTREPKKVAVVRTP (human).
T5 construct: Synthetic peptide covalently immobilized on glass through a hydrophilic linker (RepliTope microarray)
T5 peptide: PPTREPKKVAVVRTP
The description is as above.
Description: as §1, §2

The target in assay [3] is T6, SLPTPPTREPKKVAV (human, also: covalently immobilized on glass through a hydrophilic linker).
T6 construct: Synthetic peptide covalently immobilized on glass through a hydrophilic linker (RepliTope microarray)
T6 peptide: SLPTPPTREPKKVAV
The description is as above.
Description: as §1, §2

The target in assay [4] is T7, EPKKVAVVRTPPKSP (human).
T7 construct: Synthetic peptide covalently immobilized on glass through a hydrophilic linker (RepliTope microarray)
T7 peptide: EPKKVAVVRTPPKSP
The description is as above.
Description: as §1, §2

In the next assay the target is T8, LPTPPTREPKKVAVV (human).
T8 construct: Synthetic peptide covalently immobilized on glass through a hydrophilic linker (RepliTope microarray)
T8 peptide: LPTPPTREPKKVAVV
Described as above.
Description: as §1, §2

The target in assay [5] is T9, EPKKVAVVRTPPKSP (human).
T9 construct: Synthetic peptide covalently immobilized on glass through a hydrophilic linker (RepliTope microarray)
T9 peptide: EPKKVAVVRTPPKSP
The description is as above.
Description: as §1, §2

Assay [6] has as its target T10, TREPKKVAVVRTPPK (human, also: covalently immobilized on glass through a hydrophilic linker).
T10 construct: Synthetic peptide covalently immobilized on glass through a hydrophilic linker (RepliTope microarray)
T10 peptide: TREPKKVAVVRTPPK
Described as above.
Description: as §1, §2

The next assay deals with T11, PGSRSRTPSLPTPPT (human).
T11 construct: Synthetic peptide covalently immobilized on glass through a hydrophilic linker (RepliTope microarray)
T11 peptide: PGSRSRTPSLPTPPT
The description is as above.
Description: as §1, §2

The target in assay [7] is T12, TREPKKVAVVRTPPK (human, also: covalently immobilized on glass through a hydrophilic linker).
T12 construct: Synthetic peptide covalently immobilized on glass through a hydrophilic linker (RepliTope microarray)
T12 peptide: TREPKKVAVVRTPPK
The description is as above.
Description: as §1, §2

For assay [8], the target named is T13, … (human).
T13 construct: Synthetic peptide covalently immobilized on glass through a hydrophilic linker (RepliTope microarray)
Described as above.
Description: as §1, §2

Assay [9] addresses T14, PTPPTREPKKVAVVR (human).
T14 construct: Synthetic peptide covalently immobilized on glass through a hydrophilic linker (RepliTope microarray)
T14 peptide: PTPPTREPKKVAVVR
The assay is described as above.
Description: as §1, §2

Assay [10] concerns the target T15, PPTREPKKVAVVRTP (human).
T15 construct: Synthetic peptide covalently immobilized on glass through a hydrophilic linker (RepliTope microarray)
T15 peptide: PPTREPKKVAVVRTP
The description is as above.
Description: as §1, §2

In assay [11] the target is T16, … (human).
T16 construct: Synthetic peptide covalently immobilized on glass through a hydrophilic linker (RepliTope microarray)
The description is as above.
Description: as §1, §2
The source holds these as a separate data set.

Assay [12] has as its target T17, SLPTPPTREPKKVAV (human, also: covalently immobilized on glass through a hydrophilic linker).
T17 construct: Synthetic peptide covalently immobilized on glass through a hydrophilic linker (RepliTope microarray)
T17 peptide: SLPTPPTREPKKVAV
The description is as above.
Description: as §1, §2

In the next assay the target is T18, KKVAVVRTPPKSPSS (human).
T18 construct: Synthetic peptide covalently immobilized on glass through a hydrophilic linker (RepliTope microarray)
T18 peptide: KKVAVVRTPPKSPSS
The assay is described as above.
Description: as §1, §2

For a further assay, the target named is T19, PTREPKKVAVVRTPP (human).
T19 construct: Synthetic peptide covalently immobilized on glass through a hydrophilic linker (RepliTope microarray)
T19 peptide: PTREPKKVAVVRTPP
The description is as above.
Description: as §1, §2

In assay [13] the target is h-Tau 441 (human Tau isoform 2-441, Accession No. NP 005901.2) (human, UniProt P10636 2-758). In words: SPR, BIAcore CM3 sensor chip, immobilized h-Tau 441. The procedure: The binding affinity (Kd) of the 10H8 and 19G10 mAbs was determined by BIAcore CM3 sensor chip (Biacore, Piscataway, N.J.) using immobilized h-Tau 441 as the capture protein.
Chain of h-Tau 441 (human Tau isoform 2-441, Accession No. NP 005901.2) (P10636 other isoform, or with tags, fused parts or gaps limits assumed): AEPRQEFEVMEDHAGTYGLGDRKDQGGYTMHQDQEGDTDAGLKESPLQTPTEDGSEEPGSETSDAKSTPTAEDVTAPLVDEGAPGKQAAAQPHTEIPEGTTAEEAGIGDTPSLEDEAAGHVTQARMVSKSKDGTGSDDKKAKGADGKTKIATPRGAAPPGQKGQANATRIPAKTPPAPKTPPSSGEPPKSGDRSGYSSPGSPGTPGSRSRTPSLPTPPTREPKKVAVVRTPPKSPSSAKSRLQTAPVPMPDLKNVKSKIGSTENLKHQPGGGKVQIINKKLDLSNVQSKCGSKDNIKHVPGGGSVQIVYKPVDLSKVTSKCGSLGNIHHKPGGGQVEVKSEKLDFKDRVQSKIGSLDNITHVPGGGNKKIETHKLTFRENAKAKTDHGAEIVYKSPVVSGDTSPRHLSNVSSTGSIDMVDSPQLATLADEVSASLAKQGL
In general terms: In SPR one partner is held on a chip, and binding of the other changes the refractive index at the surface.

One may read the Kd as the equilibrium constant for the complex coming apart. Low readings indicate higher affinity, high ones lower affinity. By koff is commonly meant a measure of how fast the partners let go of each other. By kon is commonly meant a measure of how fast the partners come together. Low values mean slower complex formation, high ones faster complex formation.

B1: monoclonal antibody 10H8 (antibody, mouse IgG1, V domains shown)
VH: EVQLQQSGAELVRPGASVKLSCTASGFNIKDEYMNWVKQRPERGLEWIGWIDPENGDAAYASKFQGKATMTADTSSNTAYLQLSSLTSEDTAVYFCTFFYSNYDGYFDVWGAGTTVTVSS
VL: DVLMTQTPLSLPVSLGDQASISCRSSQNIIHSNGSTYLEWYLQKPGQSPKLLIYKVSNRFSGVPDRFSGSGSGTDFTLKISRVEAEDLGIYYCFQGSHVPWTFGGGTKLEIK
notes: also called mAb 10H8; 10H8 mAb
B1: the “Fluorescent Intensity” value is 53000 arbitrary fluorescence units in the assay with PTPPTREPKKVAVVR [1]; 60600 arbitrary fluorescence units in the assay with TPPTREPKKVAVVRT; 552 arbitrary fluorescence units in the assay with SRSRTPSLPTPPTRE; 1400 arbitrary fluorescence units in the assay with REPKKVAVVRTPPKS; 61100 arbitrary fluorescence units with PPTREPKKVAVVRTP [2]; 63900 arbitrary fluorescence units in the assay with SLPTPPTREPKKVAV [3]. In addition, the “Fluorescent Intensity” value with EPKKVAVVRTPPKSP [4] is 890 arbitrary fluorescence units; in the assay with LPTPPTREPKKVAVV, 59500 arbitrary fluorescence units; with EPKKVAVVRTPPKSP [5], 2100 arbitrary fluorescence units; in the assay with TREPKKVAVVRTPPK [6] it was 58800 arbitrary fluorescence units; with PGSRSRTPSLPTPPT it was 570 arbitrary fluorescence units; with TREPKKVAVVRTPPK [7], 32400 arbitrary fluorescence units. The “Fluorescent Intensity” value was 56700 arbitrary fluorescence units in [8]; 64200 arbitrary fluorescence units with PTPPTREPKKVAVVR [9]; 60200 arbitrary fluorescence units with PPTREPKKVAVVRTP [10]; 58000 arbitrary fluorescence units in assay [11]; 64400 arbitrary fluorescence units in the assay with SLPTPPTREPKKVAV [12]; 750 arbitrary fluorescence units in the assay with KKVAVVRTPPKSPSS. In addition, the “Fluorescent Intensity” value with PTREPKKVAVVRTPP was 64300 arbitrary fluorescence units. In [13], this molecule yielded a Kd of 17 nM. The molecule also had a dissociation rate constant (koff) in assay [13] of 0.000306 s⁻¹. For the same molecule, the kon in assay [13] was 18200 M⁻¹ s⁻¹.
